Test [1] has as its target SOS1 P7 (Homo sapiens), Q07889. The test can be described thus: fluorescence polarization.
The target in test [2] is P7, fluorescein-labelled proline-rich peptide from the SOS1 proline-rich domain (human). The test can be described thus: fluorescence polarisation; 0.2 µM fluorescein-labelled peptide, SH3 domain titrated 0 to 200 µM; 30 mM Tris/HCl pH 7.5, 5 mM MgCl2, 3 mM DTT, 25 °C; quadratic ligand binding equation. (Fluorescence polarisation rises when a labelled molecule tumbles more slowly, as on binding a larger partner.)

Broadly, the Kd is the concentration at which binding is half-saturated. A higher Kd goes with a looser complex.

B1: ARHGAP12 SH3, Q8IWW6 (protein)
chain: KIIPGQVYIEVEYDYEYEAKDRKIVIKQGERYILVKKTNDDWWQVKPDENSKAFYVPAQYVKEVTRKAL
B1 yielded a Kd in test [1] of less than 500 nM.

B2: ARHGAP12 SH3 domain, GST cleaved (domain or fragment)
chain: PGQVYIEVEYDYEYEAKDRKIVIKQGERYILVKKTNDDWWQVKPDENSKAFYVPAQYVKEVTR
As to B2, the Kd in test [2] came to 200 nM.

Values taken from paper PMC10814857, “Functional Classification and Interaction Selectivity Landscape of the Human SH3 Domain Superfamily” (Cells, 2024).
